Laboratory results published in patent publication US20160083449A1 (FRED HUTCHINSON CANCER RESEARCH CENTER, published 2016).

T1: Wilms tumor protein 1 (WT-1) peptide on HLA-A*02:01 (human)
T1 peptide: RMFPNAPYL


Experiments:
[1] = target: T2, WT-1^126-134 peptide/MHC tetramer (…, SEQ ID NO.:16, with HLA-A2), PE-conjugated (human); assay: flow cytometry of transduced PBMCs; share of tetramer-positive cells within the transduced population (Vβ+ cells minus the endogenous Vβ+ cells of the untransduced control); drawn table
T2 construct: Tetramer reagent used for staining of T cells; the source and the construct of the HLA-A2 monomers are not described; also called WT1 tetramers; WT-1 tetramer

[2] = target: T1, Wilms tumor protein 1 (WT-1) peptide on …; assay: Kd or kinetics

| % transduced Vβ+ tet+ [1] | binding result [2] | Binder |
| --- | --- | --- |
| 51.2% | – | TCRP20, WT-1^126-134-specific TCR of T cell clone P20 (TCR, V domains shown, Engineered cysteine pair (alpha T179C, beta S185C, precursor numbering) gives an extra interchain disulfide., On the T cell clone) V domain 1: QKEVEQNSGPLSVPEGAIASLNCTYSDRGSQSFFWYRQYSGKSPELIMSIYSNGDKEDGRFTAQLNKASQYVSLLIRDSQPSDSATYLCAVLEGQKLLFARGTMLKVDL V domain 2: DVKVTQSSRYLVKRTGEKVFLECVQDMDHENMFWYRQDPGLGLRLIYFSYDVKMKEKGDIPEGYSVSREKKERFSLILESASTNQTSMYLCATSHQPQHFGDGTRLSILE |
| – | recognises | P20 TCR (TCRP20) (TCR, V domains shown) Valpha: QKEVEQNSGPLSVPEGAIASLNCTYSDRGSQSFFWYRQYSGKSPELIMSIYSNGDKEDGRFTAQLNKASQYVSLLIRDSQPSDSATYLCAVLEGQKLLFARGTMLKVDL Vbeta: DVKVTQSSRYLVKRTGEKVFLECVQDMDHENMFWYRQDPGLGLRLIYFSYDVKMKEKGDIPEGYSVSREKKERFSLILESASTNQTSMYLCATSHQPQHFGDGTRLSIL |
| – | recognises | P1 TCR (TCRP1) (TCR, V domains shown) Valpha: AQKVTQAQTEISVVEKEDVTLDCVYETRDTTYYLFWYKQPPSGELVFLIRRNSFDEQNEISGRYSWNFQKSTSSFNFTITASQVVDSAVYFCALSEAHRDSNYQLIWGAGTKLIIKP Vbeta: ETGVTQTPRHLVMGMTNKKSLKCEQHLGHNAMYWYKQSAKKPLELMFVYNFKEQTENNSVPSRFSPECPNSSHLFLHLHTLQPEDSALYLCASSQDEQFLYNEQFFGPGTRLTVL |
